The source of these data is paper PMC7025507.

The experiment concerns the target hStau1^55 SSM/RBD5 construct (human). Nature of the experiment: SEC. A general note: In gel filtration, larger molecules generally elute earlier.

“hStau1^55 SSM/RBD5 construct (domain or fragment)” gave a stoichiometry N of 2.

In general, stoichiometry N refers to a count of units in the complex or per binding partner.
